From US20190142971A1, “FORMULATION AND DELIVERY OF MODIFIED NUCLEOSIDE, NUCLEOTIDE, AND NUCLEIC ACID COMPOSITIONS” (ModernaTX, Inc., priority 2013, published 2019)
Read-outs that look alike come from different tables or passages of the source.

Key:
mice = test: Example 29: mCherry LNP IV in mice, liver and spleen by IHC, western blot, FACS; format: in vivo; details: LNP NPA-003-5, 100 ug IV, 24 hrs
Description: The mCherry formulation, listed in Table 54, was characterized by particle size, zeta potential, and encapsulation.
Mice were sacrificed at 24 hrs after dosing. The liver and spleen from the mice administered with mCherry modified mRNA formulations were analyzed by immunohistochemistry (IHC), western blot, or fluorescence-activated cell sorting (FACS).

rats = test: Example 67: intravitreal mCherry/luciferase mRNA in rats, F-microscopy (Table 100); format: in vivo; details: saline, 18 hours
Text: The sample was compared against a control of saline only delivered intravitreally.
The formulation will be administered to the left or right eye of each animal on day 1 while the animal is anesthetized. On the day prior to administration gentamicin ophthalmic ointment or solution was applied to both eyes twice. The gentamicin ophthalmic ointment or solution was also applied immediately following the injection and on the day following the injection. Prior to dosing, mydriatic drops (1% tropicamide and/or 2.5% phenylephrine) are applied to each eye.
18 hours post dosing the eyes receiving the dose of mCherry and delivery buffer are enucleated and each eye was separately placed in a tube containing 10 mL 4% paraformaldehyde at room temperature for overnight tissue fixation. The following day, eyes will be separately transferred to tubes containing 10 mL of 30% sucurose and stored at 21° C. until they were processed and sectioned. The slides prepared from different sections were evaluated under F-microscopy.

HEK293 cells = test: Example 46B: percent modification, HEK293 G-CSF ELISA (Table 75); format: cell-based, Human; details: HEK293, 250 ng mRNA with RNAiMAX, supernatant after 16 hours
BJ fibroblasts = details: 250 ng transfected daily for 5 days
[1] = tested on: peripheral blood mononuclear cells (PBMC); format: cell-based, human
Description: 500 ng of G-CSF mRNA modified with 5-methylcytosine (5mC) and pseudouridine (pseudoU) or unmodified G-CSF mRNA was transfected with 0.4 uL of Lipofectamine 2000 into peripheral blood mononuclear cells (PBMC) from three normal blood donors (D1, D2, and D3). […] The supernatant was harvested 6 hours and 18 hours after transfection and run by ELISA to determine the protein expression. The expression of G-CSF, IFN-alpha, and TNF-alpha for Donor 1 is shown in Table 88, Donor 2 is shown in Table 89 and Donor 3 is shown in Table 90.

B1: mCherry: mCherry mRNA (SEQ ID NO: 5; SEQ ID NO: 12 in Example 29), Cap1, fully modified with 5-methylcytosine and pseudouridine (nucleic acid)
chain: GGGAAAUAAGAGAGAAAAGAAGAGUAAGAAGAAAUAUAAGAGCCACCAUGGUAUCCAAGGGGGAGGAGGACAACAUGGCGAUCAUCAAGGAGUUCAUGCGAUUCAAGGUGCACAUGGAAGGUUCGGUCAACGGACACGAAUUUGAAAUCGAAGGAGAGGGUGAAGGAAGGCCCUAUGAAGGGACACAGACCGCGAAACUCAAGGUCACGAAAGGGGGACCACUUCCUUUCGCCUGGGACAUUCUUUCGCCCCAGUUUAUGUACGGGUCCAAAGCAUAUGUGAAGCAUCCCGCCGAUAUUCCUGACUAUCUGAAACUCAGCUUUCCCGAGGGAUUCAAGUGGGAGCGGGUCAUGAACUUUGAGGACGGGGGUGUAGUCACCGUAACCCAAGACUCAAGCCUCCAAGACGGCGAGUUCAUCUACAAGGUCAAACUGCGGGGGACUAACUUUCCGUCGGAUGGGCCGGUGAUGCAGAAGAAAACGAUGGGAUGGGAAGCGUCAUCGGAGAGGAUGUACCCAGAAGAUGGUGCAUUGAAGGGGGAGAUCAAGCAGAGACUGAAGUUGAAAGAUGGGGGACAUUAUGAUGCCGAGGUGAAAACGACAUACAAAGCGAAAAAGCCGGUGCAGCUUCCCGGAGCGUAUAAUGUGAAUAUCAAGUUGGAUAUUACUUCACACAAUGAGGACUACACAAUUGUCGAACAGUACGAACGCGCUGAGGGUAGACACUCGACGGGAGGCAUGGACGAGUUGUACAAAUGAUAAGCUGCCUUCUGCGGGGCUUGCCUUCUGGCCAUGCCCUUCUUCUCUCCCUUGCACCUGUACCUCUUGGUCUUUGAAUAAAGCCUGAGUAGGAAG
modifications: Cap1; 5-methylcytosine and pseudouridine
With B1 the “mCherry expression in liver (histology)” value (mice) was “uniform mCherry expression throughout the section”, the “mCherry expression in spleen leukocyte populations (FACS)” value (mice) was “negative for mCherry expression” and the “mCherry expression in eye sections” value (rats) was “Positive expression was seen”. For the same molecule, the “G-CSF Expression” value (HEK293 cells) was 0 ng/mL, the IFN-beta (BJ fibroblasts; 6 hours) was 0 pg/mL and the IL-6 (BJ fibroblasts; 6 hours) was 3278 pg/mL. The IFN-beta (BJ fibroblasts; Day 1) was 238 pg/mL, the IL-6 (BJ fibroblasts; Day 1) was 3893 pg/mL and the IFN-beta (BJ fibroblasts; Day 2) was 113 pg/mL. For the same molecule, the IL-6 (BJ fibroblasts; Day 2) was 1833 pg/mL, the IFN-beta (BJ fibroblasts; Day 3) was 413 pg/mL and the IL-6 (BJ fibroblasts; Day 3) was 25539 pg/mL. It also gave an IFN-beta (BJ fibroblasts; Day 4) of 413 pg/mL, an IL-6 (BJ fibroblasts; Day 4) of 29233 pg/mL and an IFN-beta (BJ fibroblasts; Day 5) of 213 pg/mL. For the same molecule, the IL-6 (BJ fibroblasts; Day 5) was 20178 pg/mL, the G-CSF ([1]; PBMC Donor 1, 500 ng mRNA, 6 hours) was 0 pg/mL and the G-CSF ([1]; PBMC Donor 1, 500 ng mRNA, 18 hours) was 0 pg/mL. The G-CSF ([1]; PBMC Donor 2, 500 ng mRNA, 6 hours) was 0 pg/mL, the G-CSF ([1]; PBMC Donor 2, 500 ng mRNA, 18 hours) was 7 pg/mL and the G-CSF ([1]; PBMC Donor 3, 500 ng mRNA, 6 hours) was 0 pg/mL. It also gave a G-CSF ([1]; PBMC Donor 3, 500 ng mRNA, 18 hours) of 0 pg/mL.
